B1: EPB41L3 (parent)
chain: FRFAPNHTKELEDKVIELHKSHRG
B2: TRIM43 (parent)
chain: NRFRVEISFHFEVTNHNIRLFEDV

Variants of: B1
Test: protein stability index of a GFP-peptide fusion (GPS, HEK-293T) (PSI 1-6); higher = more stable
Details: c terminus: a fixed tail appended
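Also: lentivirally expressed fusions sorted by FACS into six bins by GFP to DsRed ratio, PSI derived from sequencing read proportions per bin multiplied by bin number.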

| Variant | protein stability index |
| --- | --- |
| FRFAPNHTKELEDKVIELHKSYRG | 2.96 |
| FRFAPNHTKELEDKVIELHKSHRR | 2.05 |
| FRFAPNHTKELEDKVIELHKSHRM | 2.53 |
| FRFAPNHTKELEDKVIELHKSHRA | 1.93 |
| FRFAPNHTKELEDKVIELHKSHRS | 1.94 |
| FRFAPNHTKELEDKVIELHKSHRH | 1.97 |
| FRFAPNHTKELEDKVIELHKSHRT | 1.73 |
| FRFAPNHTKELEDKVIELHKSHRF | 2.31 |
| FRFAPNHTKELEDKVIELHKSHRD | 1.75 |
| FRFAPNHTKELEDKVIELHKSHRY | 1.56 |
| FRFAPNHTKELEDKVIELHKSHRC | 1.36 |
| FRFAPNHTKELEDKVIELHKSHRN | 2.45 |
| FRFAPNHTKELEDKVIELHKSHRL | 2.02 |
| FRFAPNHTKELEDKVIELHKSHRP | 2.19 |
| FRFAPNHTKELEDKVIELHKSHRW | 1.84 |
| FRFAPNHTKELEDKVIELHKSHRV | 1.74 |
| FRFAPNHTKELEDKVIELHKSHRE | 2.34 |
| FRFAPNHTKELEDKVIELHKSHRK | 2.06 |
| FRFAPNHTKELEDKVIELHKSHRI | 2.04 |
| FRFAPNHTKELEDKVIELHKSHRQ | 2.74 |

| Variant | protein stability index |
| --- | --- |
| FRFAPNHTKELEDKVIELHKSHPG | 1.93 |
| FRFAPNHTKELEDKVIELHKSHYG | 2.78 |
| FRFAPNHTKELEDKVIELHKSHDG | 2.84 |
| FRFAPNHTKELEDKVIELHKSHWG | 1.54 |
| FRFAPNHTKELEDKVIELHKSHFG | 1.5 |
| FRFAPNHTKELEDKVIELHKSHIG | 1.72 |
| FRFAPNHTKELEDKVIELHKSHEG | 3.15 |
| FRFAPNHTKELEDKVIELHKSHNG | 2 |
| FRFAPNHTKELEDKVIELHKSHQG | 2.87 |
| FRFAPNHTKELEDKVIELHKSHMG | 1.73 |
| FRFAPNHTKELEDKVIELHKSHCG | 2.4 |
| FRFAPNHTKELEDKVIELHKSHVG | 1.83 |
| FRFAPNHTKELEDKVIELHKSHHG | 1.92 |
| FRFAPNHTKELEDKVIELHKSHKG | 2.37 |
| FRFAPNHTKELEDKVIELHKSHAG | 2.07 |
| FRFAPNHTKELEDKVIELHKSHSG | 1.85 |
| FRFAPNHTKELEDKVIELHKSHGG | 3.6 |
| FRFAPNHTKELEDKVIELHKSHTG | 2.07 |
| FRFAPNHTKELEDKVIELHKSHLG | 1.92 |

Variants of: B2
Test: as above
Details: c terminus: a fixed tail appended

| Variant | protein stability index |
| --- | --- |
| NRFRVEILFHFEVTNHNIRLFEDV | 3.72 |
| NRFRVEIRFHFEVTNHNIRLFEDV | 2.43 |
| NRFRVEICFHFEVTNHNIRLFEDV | 2.02 |
| NRFRVEIPFHFEVTNHNIRLFEDV | 2.36 |
| NRFRVEIMFHFEVTNHNIRLFEDV | 2.39 |
| NRFRVEIGFHFEVTNHNIRLFEDV | 2.38 |
| NRFRVEESFHFEVTNHNIRLFEDV | 1.91 |
| NRFRVEFSFHFEVTNHNIRLFEDV | 3.57 |
| NRFRVEGSFHFEVTNHNIRLFEDV | 2.43 |
| NRFRVETSFHFEVTNHNIRLFEDV | 1.68 |
| NRFRVENSFHFEVTNHNIRLFEDV | 2.06 |
| NRFRVEDSFHFEVTNHNIRLFEDV | 2.44 |
| NRFRVEPSFHFEVTNHNIRLFEDV | 1.81 |
| NRFRVEKSFHFEVTNHNIRLFEDV | 2.12 |
| NRFRVERSFHFEVTNHNIRLFEDV | 2.85 |
| NRFRVEYSFHFEVTNHNIRLFEDV | 3.41 |
| NRFIVEISFHFEVTNHNIRLFEDV | 3.43 |
| NRFEVEISFHFEVTNHNIRLFEDV | 3.4 |
| NRFGVEISFHFEVTNHNIRLFEDV | 3.21 |
| NRFKVEISFHFEVTNHNIRLFEDV | 2.96 |
| NRFNVEISFHFEVTNHNIRLFEDV | 2.75 |
| NRFCVEISFHFEVTNHNIRLFEDV | 2.91 |
| NRFAVEISFHFEVTNHNIRLFEDV | 3.36 |
| NRFTVEISFHFEVTNHNIRLFEDV | 2.08 |
| NRFLVEISFHFEVTNHNIRLFEDV | 2.88 |

| Variant | protein stability index |
| --- | --- |
| NRFRVEISFHFEVTNANIRLFEDV | 3.14 |
| NRFRVEISFHFEVTNYNIRLFEDV | 2.9 |
| NRFRVEISFHFEVTNLNIRLFEDV | 1.82 |
| NRFRVEISFHFEVTNSNIRLFEDV | 2.05 |
| NRFRVEISFHFEVTNCNIRLFEDV | 3.06 |
| NRFRVEISFHFEVTNRNIRLFEDV | 4.01 |
| NRFRVEISFHFEVTNVNIRLFEDV | 1.07 |
| NRFRVEISFHFNVTNHNIRLFEDV | 1.39 |
| NRFRVEISFHFIVTNHNIRLFEDV | 1.68 |
| NRFRVEISFHFLVTNHNIRLFEDV | 2.91 |
| NRFRVEISFHFYVTNHNIRLFEDV | 2.51 |
| NRFRVEISFHFAVTNHNIRLFEDV | 2.58 |
| NRFRVEISFHFWVTNHNIRLFEDV | 2.64 |
| NRFRVEISFHFEVTNHQIRLFEDV | 3.45 |
| NRFRVEISFHFEVTNHCIRLFEDV | 3.65 |
| NRFRVEISFHFEVTNHIIRLFEDV | 1.37 |
| NRFRVEISFHFEVTNHRIRLFEDV | 2.53 |
| NRFRVEISFHFEVTNHFIRLFEDV | 2.85 |
| NRFRVEISFHFEVTNHDIRLFEDV | 4.85 |
| NRFRVEISFHFEVTNHKIRLFEDV | 2.61 |
| NWFRVEISFHFEVTNHNIRLFEDV | 2.21 |
| NQFRVEISFHFEVTNHNIRLFEDV | 3.46 |
| NIFRVEISFHFEVTNHNIRLFEDV | 3.39 |
| NPFRVEISFHFEVTNHNIRLFEDV | 2.38 |
| NVFRVEISFHFEVTNHNIRLFEDV | 1.92 |

| Variant | protein stability index |
| --- | --- |
| NSFRVEISFHFEVTNHNIRLFEDV | 1.5 |
| NDFRVEISFHFEVTNHNIRLFEDV | 2.46 |
| NYFRVEISFHFEVTNHNIRLFEDV | 2.89 |
| NRFRVEISFHFEVYNHNIRLFEDV | 3.83 |
| NRFRVEISFHFEVENHNIRLFEDV | 2.04 |
| NRFRVEISFHFEVNNHNIRLFEDV | 3.31 |
| NRFRVEISFHFEVHNHNIRLFEDV | 3.49 |
| NRFRVEISFHFEVLNHNIRLFEDV | 2.29 |
| NRFRVPISFHFEVTNHNIRLFEDV | 2.27 |
| NRFRVMISFHFEVTNHNIRLFEDV | 2.64 |
| NRFRVLISFHFEVTNHNIRLFEDV | 2.03 |
| NRFRVTISFHFEVTNHNIRLFEDV | 4.38 |
| NRFRVHISFHFEVTNHNIRLFEDV | 4.48 |
| NRFRVGISFHFEVTNHNIRLFEDV | 2.02 |
| NRFRVSISFHFEVTNHNIRLFEDV | 3.18 |
| NRFRVAISFHFEVTNHNIRLFEDV | 2.86 |
| NRFRVDISFHFEVTNHNIRLFEDV | 2.34 |
| NRFRVKISFHFEVTNHNIRLFEDV | 3.25 |
| NRFRVVISFHFEVTNHNIRLFEDV | 3.86 |
| NRFRVEISFHFEVTNHNQRLFEDV | 3.52 |
| NRFRVEISFHFEVTNHNHRLFEDV | 3.18 |
| NRFRVEISFHFEVTNHNCRLFEDV | 4.6 |
| NRFRVEISFHFEVTNHNKRLFEDV | 1.47 |
| NRFRVEISFHFEVTNHNERLFEDV | 2.9 |
| NRFRVEISFHFEVTNHNPRLFEDV | 3.07 |

| Variant | protein stability index |
| --- | --- |
| NRFRVEISFHFEVTNHNDRLFEDV | 1.3 |
| NRFRVEISFHFEVTNHNGRLFEDV | 2.43 |
| NRFRVEISFHFEVTYHNIRLFEDV | 3.23 |
| NRFRVEISFHFEVTWHNIRLFEDV | 3.34 |
| NRFRVEISFHFEVTMHNIRLFEDV | 2.49 |
| NRFRVEISFHFEVTTHNIRLFEDV | 1.49 |
| NRFRVEISFHFEVTFHNIRLFEDV | 3.62 |
| NRFRVEISFHFEVTVHNIRLFEDV | 2.13 |
| NRFRVEISFHFEVTPHNIRLFEDV | 3.72 |
| NRFRVEISFHFEVTCHNIRLFEDV | 3.41 |
| NRFRVEISFHFEVTGHNIRLFEDV | 2.28 |
| NRFRVEISFHFEVTSHNIRLFEDV | 2.18 |
| NRFRVEISFHFEVTDHNIRLFEDV | 2.5 |
| NRFRVEISFHFEVTLHNIRLFEDV | 3.22 |
| NRFRVEISFHFEVTEHNIRLFEDV | 2.92 |
| NRTRVEISFHFEVTNHNIRLFEDV | 2.7 |
| NRVRVEISFHFEVTNHNIRLFEDV | 2.2 |
| NRNRVEISFHFEVTNHNIRLFEDV | 3.43 |
| NRERVEISFHFEVTNHNIRLFEDV | 1.53 |
| NRMRVEISFHFEVTNHNIRLFEDV | 2.92 |
| NRARVEISFHFEVTNHNIRLFEDV | 3.07 |
| NRDRVEISFHFEVTNHNIRLFEDV | 3.13 |
| NRCRVEISFHFEVTNHNIRLFEDV | 2.54 |
| NRIRVEISFHFEVTNHNIRLFEDV | 2.35 |
| NRKRVEISFHFEVTNHNIRLFEDV | 2.36 |

| Variant | protein stability index |
| --- | --- |
| NRFRVEISFHKEVTNHNIRLFEDV | 1.46 |
| NRFRVEISFHEEVTNHNIRLFEDV | 1.03 |
| NRFRVEISFHPEVTNHNIRLFEDV | 1.58 |
| NRFRVEISFHDEVTNHNIRLFEDV | 1.27 |
| NRFRVEISFHIEVTNHNIRLFEDV | 2.83 |
| NRFRVEISFHSEVTNHNIRLFEDV | 2.74 |
| NRFRVEISFHTEVTNHNIRLFEDV | 2.44 |
| NRFRVEISFHQEVTNHNIRLFEDV | 2.38 |
| LRFRVEISFHFEVTNHNIRLFEDV | 3.45 |
| TRFRVEISFHFEVTNHNIRLFEDV | 1.62 |
| DRFRVEISFHFEVTNHNIRLFEDV | 3.89 |
| CRFRVEISFHFEVTNHNIRLFEDV | 3.11 |
| RRFRVEISFHFEVTNHNIRLFEDV | 2.37 |
| QRFRVEISFHFEVTNHNIRLFEDV | 3.07 |
| NRFRVEISFHFEHTNHNIRLFEDV | 2.26 |
| NRFRVEISFHFEDTNHNIRLFEDV | 1.93 |
| NRFRVEISFHFEMTNHNIRLFEDV | 2.35 |
| NRFRVEISFHFEETNHNIRLFEDV | 4.46 |
| NRFRVEISFHFEPTNHNIRLFEDV | 4.3 |
| NRFRVEISFQFEVTNHNIRLFEDV | 4.08 |
| NRFRVEISFNFEVTNHNIRLFEDV | 2.63 |
| NRFRVEISFSFEVTNHNIRLFEDV | 3.4 |
| NRFRVEISFPFEVTNHNIRLFEDV | 3.64 |
| NRFRVEISFEFEVTNHNIRLFEDV | 2.98 |
| NRFRVEISEHFEVTNHNIRLFEDV | 1.95 |

| Variant | protein stability index |
| --- | --- |
| NRFRVEISAHFEVTNHNIRLFEDV | 2.87 |
| NRFRVEISRHFEVTNHNIRLFEDV | 1.76 |
| NRFRVEISSHFEVTNHNIRLFEDV | 1.91 |
| NRFRVEISQHFEVTNHNIRLFEDV | 1.28 |
| NRFRVEISDHFEVTNHNIRLFEDV | 2.27 |
| NRFRVEISTHFEVTNHNIRLFEDV | 2.01 |
| NRFRVEISPHFEVTNHNIRLFEDV | 2.08 |
| NRFRVEISGHFEVTNHNIRLFEDV | 2 |
| NRFRVEISHHFEVTNHNIRLFEDV | 1.09 |
| NRFRVEISNHFEVTNHNIRLFEDV | 2.22 |
| NRFRVEISKHFEVTNHNIRLFEDV | 1.85 |
| NRFRTEISFHFEVTNHNIRLFEDV | 3.37 |
| NRFRKEISFHFEVTNHNIRLFEDV | 3.27 |
| NRFRWEISFHFEVTNHNIRLFEDV | 2.53 |
| NRFRNEISFHFEVTNHNIRLFEDV | 2.11 |
| NRFRFEISFHFEVTNHNIRLFEDV | 2.78 |
| NRFRQEISFHFEVTNHNIRLFEDV | 1.79 |
| NRFRPEISFHFEVTNHNIRLFEDV | 2.8 |
| NRFRDEISFHFEVTNHNIRLFEDV | 2.08 |
| NRFRREISFHFEVTNHNIRLFEDV | 1.5 |
| NRFRSEISFHFEVTNHNIRLFEDV | 2.08 |
| NRFRAEISFHFEVTNHNIRLFEDV | 3.44 |
| NRFRGEISFHFEVTNHNIRLFEDV | 2.86 |
| NRFREEISFHFEVTNHNIRLFEDV | 1.46 |

Reference: the supplement of paper PMC10567573
